Reference: publication PMC8149785
pKd: −log10 of the molar value.

What was measured:
mouse C3b (mouse) = mouse C3b (mouse) (UniProt P01027); experiment: SPR; C3b amine coupled to a C1 chip (233 RU murine, 258 RU human); FH flowed over, two-fold dilution series from 2 uM to 6 nM; BIAcore T200, 25°C, HBSP+ (10 mM HEPES, 150 mM NaCl, 0.05% P20); equilibrium data, 1:1 binding model
human C3b (human) = human C3b (human) (UniProt P01024); experiment: as above

With “recombinant murine factor H (from UniProt P06909 19-1234) (natural protein)” as the substance, how does the pKd (mouse C3b (mouse)) read?
Its pKd is 5.92.

What about the pKd (human C3b (human)) of the same substance?
Its pKd is 5.80.
